Assay results taken from PMC4157330, “Molecular assembly of the period-cryptochrome circadian transcriptional repressor complex” (eLife, 2014).
Each block holds one binder with its values, some of them ahead of it.

What was measured:
[1] = target: T1, mouse CRY2 (amino acids 1–512) (mouse, UniProt Q9R194 1-512); assay: crystal structure; complex of purified CRY2 (1–512) and PER2 (1095–1215); crystals grown at 4°C, hanging drop, 100 mM HEPES pH 7.5, 200 mM NaCl, 15% PEG 3350; 2.8 Å; conditions: both partners purified
T1 construct: Cryptochrome 2 (CRY2), mouse, residues 1-512, photolyase-homology region (PHR); also called CRY2-PHR; mCRY2
T1 sequence (looked up): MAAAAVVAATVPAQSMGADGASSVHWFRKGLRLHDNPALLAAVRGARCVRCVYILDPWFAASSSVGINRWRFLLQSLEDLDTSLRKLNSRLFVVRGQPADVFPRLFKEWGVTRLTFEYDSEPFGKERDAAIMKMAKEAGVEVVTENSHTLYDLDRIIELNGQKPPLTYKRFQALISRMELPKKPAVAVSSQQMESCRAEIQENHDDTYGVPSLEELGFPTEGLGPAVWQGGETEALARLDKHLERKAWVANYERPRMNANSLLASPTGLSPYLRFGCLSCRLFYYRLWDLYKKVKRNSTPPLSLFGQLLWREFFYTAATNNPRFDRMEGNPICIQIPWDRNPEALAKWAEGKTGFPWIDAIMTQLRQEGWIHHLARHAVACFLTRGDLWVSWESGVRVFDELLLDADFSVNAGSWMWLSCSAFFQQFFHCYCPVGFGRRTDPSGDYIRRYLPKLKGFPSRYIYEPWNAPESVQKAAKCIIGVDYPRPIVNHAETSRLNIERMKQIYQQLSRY

[2] = target: T1, mouse CRY2 (amino acids 1–512); assay: pull-down; GST-PER2 immobilised on glutathione beads, CRY2-PHR incubated at 4°C for 1 hr; SDS-PAGE, Coomassie stain; conditions: both partners purified

binding result [1]: binds
B1: murine PER2 (amino acids 1095–1215) (domain or fragment, mouse, UniProt O54943 1095-1215, looked up)
chain: SSDTSHTSKYFGSIDSSENNHKAKMIPDTEESEQFIKYVLQDPIWLLMANTDDSIMMTYQLPSRDLQAVLKEDQEKLKLLQRSQPRFTEGQRRELREVHPWVHTGGLPTAIDVTGCVYCES
notes: also called PER2-CBD

binding result [2]: binds
B2: GST-tagged mPER2 WT (amino acids 1095–1215) (domain or fragment, mouse, UniProt O54943 1095-1215, looked up)
chain: B1 chain
notes: also called WT PER2-CBD; GST-PER2; source: E. coli, purified
